The target of data set [1] is indolepyruvate decarboxylase (IPDC) (Salmonella enterica, UniProt H9L492). Kind of data set: Coupled enzymatic assay of IPDC (NADH absorbance at 340 nm). The settings on record: substrate of IPDC, pH 6.8.
The target in data set [2] is T1, 3-hydroxypropionaldehyde dehydrogenase AldH (Escherichia coli, UniProt P23883).
T1 sequence (P23883 1-495): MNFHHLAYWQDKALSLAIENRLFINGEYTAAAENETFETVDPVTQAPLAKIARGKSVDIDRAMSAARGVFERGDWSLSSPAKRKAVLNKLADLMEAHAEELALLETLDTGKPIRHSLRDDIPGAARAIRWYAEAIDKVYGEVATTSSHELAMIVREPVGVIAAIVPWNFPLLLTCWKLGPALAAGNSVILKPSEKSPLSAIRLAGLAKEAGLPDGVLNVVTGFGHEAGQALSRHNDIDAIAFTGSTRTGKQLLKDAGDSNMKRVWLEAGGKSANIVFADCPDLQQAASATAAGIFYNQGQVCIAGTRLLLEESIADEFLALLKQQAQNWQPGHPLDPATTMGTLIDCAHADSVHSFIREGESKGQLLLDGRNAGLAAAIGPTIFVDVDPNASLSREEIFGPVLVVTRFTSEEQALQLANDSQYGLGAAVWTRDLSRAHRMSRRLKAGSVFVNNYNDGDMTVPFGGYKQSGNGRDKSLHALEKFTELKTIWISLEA
Kind of data set: Enzymatic assay of AldH (NADH absorbance at 340 nm). Particulars: substrate of AldH; pH 8.0, 0.5 mM NAD+.

Data set [3] concerns α-ketoglutaric semialdehyde dehydrogenase KDHba. Particulars: substrate of KDHba; from Xiong et al., Sci Rep 2012; cited from earlier work.
The subject of data set [4] is PA1 strain. Kind of data set: Shake flask fermentation for pentanoic acid production (PA1 strain with pIPA1, pIPA3 and a DC-DH plasmid), HPLC. Particulars: aldehyde dehydrogenase varied, wild-type KIVD as 2-ketoacid decarboxylase; 40 g/L glucose, 48 hours, 30° C.
In data set [5] the test system is PA1 strain. As to the kind of experiment: Shake flask fermentation for 2-methylbutyric acid production (PA1 strain with pIPA1, pIPA2 and a DC-DH plasmid), HPLC. Particulars: aldehyde dehydrogenase varied, wild-type KIVD as 2-ketoacid decarboxylase; 40 g/L glucose, 48 hours, 30° C.
In data set [6] the test system is CCC(C)C(=O)C(=O)O. As to the kind of experiment: purified protein, by the assay type. The settings on record: other: substrate of IPDC, coupled assay, pH 6.8.
Data set [7] concerns CCCCC(=O)C(=O)O. Kind of data set: purified protein, by the assay type. The settings on record: other: substrate of IPDC, coupled assay, pH 6.8.
Substrate in data set [8]: CCC(C)C=O
As to the kind of experiment: purified protein, by the assay type. The settings on record: other: substrate of AldH, pH 8.0, 0.5 mM NAD+, 30.0 °C.

The values below come from US20150132813A1, “BIOSYNTHETIC PATHWAYS, RECOMBINANT CELLS, AND METHODS” (REGENTS OF THE UNIVERSITY OF MINNESOTA, priority 2012, published 2015).

indolepyruvate decarboxylase (IPDC), sequence (H9L492 1-550): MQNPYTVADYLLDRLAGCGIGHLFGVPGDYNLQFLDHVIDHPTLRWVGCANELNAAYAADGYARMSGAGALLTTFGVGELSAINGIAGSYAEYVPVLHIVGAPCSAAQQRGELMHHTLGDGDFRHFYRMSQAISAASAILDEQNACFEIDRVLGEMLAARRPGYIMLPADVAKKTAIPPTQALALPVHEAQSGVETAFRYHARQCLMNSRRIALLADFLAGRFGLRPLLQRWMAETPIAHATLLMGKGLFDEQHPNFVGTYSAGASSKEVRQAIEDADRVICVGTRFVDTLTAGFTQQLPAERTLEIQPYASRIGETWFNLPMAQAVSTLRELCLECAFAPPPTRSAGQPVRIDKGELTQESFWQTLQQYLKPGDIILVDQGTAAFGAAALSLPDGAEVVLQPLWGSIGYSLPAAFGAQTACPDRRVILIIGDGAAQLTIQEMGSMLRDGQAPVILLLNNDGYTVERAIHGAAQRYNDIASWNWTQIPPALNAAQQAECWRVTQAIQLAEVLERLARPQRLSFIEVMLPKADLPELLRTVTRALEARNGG

With `CCC(C)C(=O)C(=O)O` (stereo not drawn) [2-Keto-3-methylvalerate, 2-keto-3-methylvalerate], in data set [1], the kcat (as a rule, the number of substrate molecules converted per active site and unit of time at saturation) is 4.13 s⁻¹.

For `CCCCC(=O)C(=O)O` [2-Ketocaproate, 2-ketocaproate], the kcat in data set [1] amounted to 1.89 s⁻¹.

Consider `CCC(C)C=O` (stereo not drawn) [2-Methyl butyraldehyde, 2-methyl butyraldehyde], for which the kcat in data set [2] stood at 3.55 s⁻¹.

For the molecule `CC(C)C=O` [isobutyraldehyde], the Km (usually the concentration of substrate that gives half-maximal velocity) in data set [3] was 34.5 mM.

In the case of `CC(C)CC=O` [isovaleraldehyde], the Km in data set [3] was 7.62 mM.

As to “YdcW: γ-aminobutyraldehyde dehydrogenase YdcW from E. coli”, the pentanoic acid titer in data set [4] came out at 0.22 g/L. The molecule also yielded a 2-methylbutyric acid titer in data set [5] of 0.23 g/L.

Take “indolepyruvate decarboxylase (IPDC) (Salmonella enterica subsp. enterica serovar Typhimurium str. LT2)”: in data set [6], the Km is recorded as 0.85 mM, the turnover number (kcat) is 4.13 ± 0.21 s⁻¹ and the kcat/Km (commonly the second-order rate constant that governs catalysis at low substrate concentration) stood at 4860 M⁻¹ s⁻¹. In addition, in data set [7], the Km is 0.63 mM, the kcat was 1.89 ± 0.06 s⁻¹ and the kcat/Km was 3000 M⁻¹ s⁻¹.

B1: PadA: phenylacetaldehyde dehydrogenase PadA from E. coli (protein, UniProt P80668 1-499, looked up)
Phenylacetaldehyde …: MTEPHVAVLSQVQQFLDRQHGLYIDGRPGPAQSEKRLAIFDPATGQEIASTADANEADVDNAVMSAWRAFVSRRWAGRLPAERERILLRFADLVEQHSEELAQLETLEQGKSIAISRAFEVGCTLNWMRYTAGLTTKIAGKTLDLSIPLPQGARYQAWTRKEPVGVVAGIVPWNFPLMIGMWKVMPALAAGCSIVIKPSETTPLTMLRVAELASEAGIPDGVFNVVTGSGAVCGAALTSHPHVAKISFTGSTATGKGIARTAADHLTRVTLELGGKNPAIVLKDADPQWVIEGLMTGSFLNQGQVCAASSRIYIEAPLFDTLVSGFEQAVKSLQVGPGMSPVAQINPLVSRAHCDKVCSFLDDAQAQQAELIRGSNGPAGEGYYVAPTLVVNPDAKLRLTREEVFGPVVNLVRVADGEEALQLANDTEYGLTASVWTQNLSQALEYSDRLQAGTVWVNSHTLIDANLPFGGMKQSGTGRDFGPDWLDGWCETKSVCVRY
B1 registered a pentanoic acid titer in data set [4] of 2.12 g/L. The molecule further registered a 2-methylbutyric acid titer in data set [5] of 2.26 g/L.

B2: Al dB: acetaldehyde dehydrogenase AldB from E. coli (protein, UniProt P37685 1-512, looked up)
Aldehyde dehydrogenase B: MTNNPPSAQIKPGEYGFPLKLKARYDNFIGGEWVAPADGEYYQNLTPVTGQLLCEVASSGKRDIDLALDAAHKVKDKWAHTSVQDRAAILFKIADRMEQNLELLATAETWDNGKPIRETSAADVPLAIDHFRYFASCIRAQEGGISEVDSETVAYHFHEPLGVVGQIIPWNFPLLMASWKMAPALAAGNCVVLKPARLTPLSVLLLMEIVGDLLPPGVVNVVNGAGGVIGEYLATSKRIAKVAFTGSTEVGQQIMQYATQNIIPVTLELGGKSPNIFFADVMDEEDAFFDKALEGFALFAFNQGEVCTCPSRALVQESIYERFMERAIRRVESIRSGNPLDSVTQMGAQVSHGQLETILNYIDIGKKEGADVLTGGRRKLLEGELKDGYYLEPTILFGQNNMRVFQEEIFGPVLAVTTFKTMEEALELANDTQYGLGAGVWSRNGNLAYKMGRGIQAGRVWTNCYHAYPAHAAFGGYKQSGIGRETHKMMLEHYQQTKCLLVSYSDKPLGLF
Consider B2, for which, in data set [4], the pentanoic acid titer worked out at 0.42 g/L. In data set [5], this molecule came in with a 2-methylbutyric acid titer of 2.31 g/L.

B3: 3-hydroxypropionaldehyde dehydrogenase AldH (Escherichia coli K-12) (protein)
chain: T1 sequence (P23883 1-495)
In data set [4], B3 showed a pentanoic acid titer of 1.76 g/L. Further, in data set [8], the Km amounted to 1.89 mM, the turnover number (kcat) amounted to 3.55 ± 0.17 s⁻¹ and the kcat/Km is 1880 M⁻¹ s⁻¹. The 2-methylbutyric acid titer in data set [5] worked out at 2.51 g/L.

B4: GabD: succinate semialdehyde dehydrogenase GabD from E. coli (protein, UniProt P25526 1-482, looked up)
Succinate-semialdehyde …: MKLNDSNLFRQQALINGEWLDANNGEAIDVTNPANGDKLGSVPKMGADETRAAIDAANRALPAWRALTAKERATILRNWFNLMMEHQDDLARLMTLEQGKPLAEAKGEISYAASFIEWFAEEGKRIYGDTIPGHQADKRLIVIKQPIGVTAAITPWNFPAAMITRKAGPALAAGCTMVLKPASQTPFSALALAELAIRAGVPAGVFNVVTGSAGAVGNELTSNPLVRKLSFTGSTEIGRQLMEQCAKDIKKVSLELGGNAPFIVFDDADLDKAVEGALASKFRNAGQTCVCANRLYVQDGVYDRFAEKLQQAVSKLHIGDGLDNGVTIGPLIDEKAVAKVEEHIADALEKGARVVCGGKAHERGGNFFQPTILVDVPANAKVSKEETFGPLAPLFRFKDEADVIAQANDTEFGLAAYFYARDLSRVFRVGEALEYGIVGINTGIISNEVAPFGGIKASGLGREGSKYGIEDYLEIKYMCIGL
As to B4, the pentanoic acid titer in data set [4] was 0.54 g/L. Also, in data set [5], the 2-methylbutyric acid titer is recorded as 0.14 g/L.
